Assay results: the supplement of paper PMC9170038

Experiments:
MS2 coat protein [1] = experiment: apparent KD of MS2 coat protein, switch OFF state (with FMN for OFF switches, without FMN for ON switches); designed switch direction (-1 OFF switch, 1 ON switch): -1; higher = weaker reporter binding; conditions: FMN input: 0 or 200 uM; Eterna round: R93 (includes R88 designs)
How it was run: (§1)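 Apparent KD is reported per design as the median of normalised binding-curve fits across its clusters. The RNA switches were made by on-chip transcription from Illumina sequencing clusters. SNAP-549-labelled MS2 coat protein was then added in twofold steps (0.7 or 1.5 nM to 3 µM; 0.8–1.5 h to 10–20 min per step) in 100 mM Tris-HCl pH 7.5, 80 mM KCl, 4 mM MgCl2, without or with constant ligand.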

MS2 coat protein [2] = experiment: apparent KD of MS2 coat protein, switch ON state; designed switch direction (-1 OFF switch, 1 ON switch): -1; higher = weaker reporter binding; conditions: FMN input: 0 or 200 uM; Eterna round: R93 (includes R88 designs)
How it was run: as §1

Row | Sequence | apparent KD of MS2 coat protein (MS2 coat protein [1]) [µM] | apparent KD of MS2 coat protein (MS2 coat protein [2]) [µM]
1 | AAACAUGGAGGAUAUACAUGAGGAUCACCCAUGUGUAUAAAAAAAUAUACAAAAGAAUGUAGAAGGCCAUGAAA [Ex 3 Snow] | 0.0542 | 0.0361
2 | AAACAUGGAGGAUAUACAUGAGGAUCACCCAUGUGUAUGAAAAAAUAUACAAAAGAAUGUAGAAGGCCAUGAAA [Mat - Exclusion 3 - Mayanna mod - D102] | 0.0478 | 0.0269
3 | AAACGUAGAGGAUAUACGAAAAGAUUACGAAAGUAAUCGGGACAUGAGGAUCACCCAUGUAGAAGGCUACGAAA [Mod2 of Meechl 64% 3] | 0.061 | 0.0271
4 | AAAGAACAUGAGGAUCACCCAUGUGAGGAUAUACGAGCGUGAGAAAGAUAAAACGAGCGUAGAAGGCACAAGAA [JR_Exclusion1_Sub4] | 0.0493 | 0.0434
5 | AAAGCACGAGGAUAUACAUGAGGAUCACCCAUGUAUAAAAAAAAAAAAAAAUCCUCAUGUAGAAGGCGUGCAAA | 0.00978 | 0.0174
6 | AAAGGACAAGGAUAUACAUGAGGAUCACCCAUGUAAAAAACAUAAUAAAAUAACUUAUGUAGAAGGUGUCCAAA [Mat - Exclusion 3 - Eli mod - D99] | 0.0571 | 0.0231
7 | AAAGGACGAGGAUAUACAUGAGGAUCACCCAUGUAAAAAACAUAAAAAAAGAAAUUAUGUAGAAGGCGUCCAAA [69%, Moding Meechl, 4] | 0.0178 | 0.0181
8 | AAAGGACGAGGAUAUACAUGAGGAUCACCCAUGUAAAAAACAUAAUAAAAGAAUUUAUGUAGAAGGCGUCCAAA [69%, Moding Meechl, 1] | 0.0171 | 0.0181
9 | AAAGGACGAGGAUAUACAUGAGGAUCACCCAUGUAAAGGGCAUAAAAAAAGAACUUAUGUAGAAGGCGUCCAAA [Mat - Exclusion 3 - Eli mod - D95] | 0.0268 | 0.035
10 | AAAGGAUCAGGAUAUGUGUGGAAAAAGUGUAUUCAAAAAAAACAUGAGGAUCACCCAUGUAGAAGGGAUCCAAA [Mod of 2Normal (20/19) by Nando, Round 1] | 0.397 | 0.297
11 | AAAGGGUCAGGAUAUCGAUUAAUAAUAAAAUAAAUAAAGAUCGAGAAGGGACAUGAGGAUCACCCAUGUAUAAA [May 77] | 0.0546 | 0.0459
12 | AAAGGGUCAGGAUAUUGAUUAAUAAUAAAAUAAAUAAAGAUCAAGAAGGGACAUGAGGAUCACCCAUGUAUAAA [May 78] | 0.063 | 0.0405
13 | AAAGUACGAGGAUAUACAUAGAUACAGAUACAUGUAGACGUACAUGAGGAUCACCCAUGUAGAAGGCGUACAUA [Mat - Same state - Mayanna Mod - D115] | 0.0747 | 0.154
14 | AAAGUGUCAGGAUAUGCUGCUCGUCACGAAAGUGAUGAGUAGCAGAAGGGACAUGAGGAUCACCCAUGUAAAGA [Exclusion 4.1d (Exclusion4-cac2 - mutated U at 5 and G at 4)] | 0.205 | 0.11
15 | AAAGUGUGAGGAUAUGCGAAAGGACACGAAAGUGACAAAGAGCAGAAGGUACAUGAGGAUCACCCAUGUAAAAA [milkweed 19] | 0.0204 | 0.0272
16 | AAAUAGCAAGGAUAUACAUGAGGAUCACCCAUGUAAAAAUGGAAAGUAAUAAAAUAAAGUAGAAGGUGCAAAUA [Ex 3 Tesla 3] | 0.037 | 0.0269
17 | AAAUAGCAAGGAUAUACAUGAGGAUCACCCAUGUGAACAAGGUAUGGAAUAGAAUAGAGUAGAAGGUGCAAAUA [Mod 2 of Ex 3 Tesla 8 - Jieux - Exclusion 3] | 0.0434 | 0.0313
18 | AAAUAGUUAGGAUAUACAUGAGGAUCACCCAUGUGGACUUAUGGCGAGUAAUUUAGUGGUAGAAGGGACUAAAA [EX2 Malc#29] | 0.047 | 0.0462
19 | AAAUGCUGAGGAUAUACAUGAGGAUCACCCAUGUAAAAUAAAUAAUGGGUGUAAACGUGUAGAAGGCAGCAUAA [Exclusion 3.14d (FMN+ favored )] | 0.0168 | 0.0338
20 | AAAUGCUGAGGAUAUACAUGAGGAUCACCCAUGUGAAAUAAAAAAUGUGUGUAAUCGUGUAGAAGGCAGCAUAA [Exclusion 3.13 (FMN+ favored more)] | 0.0181 | 0.0216
21 | AAAUUGUCAGGAUAUCGUAUAACUCUAAAAUAGAGGAGAUACGAGAAGGGACAUGAGGAUCACCCAUGUAAAAC [May 87] | 0.0572 | 0.0614
22 | AAAUUGUCAGGAUAUCUGGAUAGGAAAAAGAAAACCUAUCCAGAGAAGGGACAUGAGGAUCACCCAUGUAAAAA [JL cataway mod 1] | 0.107 | 0.0811
